± gives the uncertainty stated by the source.
Assay: self-splicing fitness, log relative to wild type (ln ratio); higher = more splicing; Tetrahymena group I intron in knt gene, E. coli kanamycin selection, DiMSum; sequences stand for … in CUCUCU…GGAGGGAAAAGUUAUCAGGCAUGCACCUGGUAGCUAGUCUUUAAACCAAUAGAUUGCAUCGGUUUAAAAGGCAAGACCGUCAAAUUGCGGGAAAGGGGUCAACAGCCGUUCAGUACCAAGUCUCAGGGGAAACUUUGAGAUGGCCUUGCAAAGGGUAUGGUAAUAAGCUGACGGACAUGGUCCUAACCACGCAGCCAAGUCCUAAGUCAACAGAUCUUCUGUUGAUAUGGAUGCAGUUCACAGACUAAAUGUCGGUCGGGGAAGAUGUAUUCUUCUCAUAAGAUAUAGUCGGACCUCUCCUUAAUGGGAGCUAGCGGAUGAAGUGAUGCAACACUGGAGCCGCUGGGAACUAAUUUGUAUGCGAAAGUAUAUUGAUUAGUUUUGGAGUACUCGUGGUCG
Method in brief: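 DiMSum derived fitness as the error-weighted combination of fold changes across replicates, kanamycin versus no kanamycin, normalised to wild type. E. coli BL21(DE3) held the library, which randomised all eight P1ex-region intron nucleotides within the knt kanamycin-resistance gene on pET-22b(+). Six replicate transformations grew overnight at 37°C or 30°C on LB agar with or without 25 μg/mL kanamycin, also containing 100 μg/mL carbenicillin, 50 μM IPTG and 0.2% rhamnose, and pooled colonies were amplicon-sequenced on an Illumina HiSeq 2500.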

Sequence	self-splicing fitness (ln) (30 °C)	self-splicing fitness (ln) (37 °C)
GAUUAGCAAUAUUACGAUAG	-2.37 ± 0.13	-1.1 ± 0.16
GCGGAGCAAUAUUACGUGUA	-3.49 ± 0.37	-2.58 ± 0.38
CCGAAGCAAUAUUACGUUAA	–	-0.989 ± 0.23
GAUGAGCAAUAUUACGGGUU	-2.39 ± 0.17	-2.6 ± 0.27
AAUUAGCAAUAUUACGUGCA	-0.984 ± 0.096	-0.374 ± 0.12
AGCGAGCAAUAUUACGGCGA	-0.915 ± 0.22	-0.377 ± 0.27
UUCAAGCAAUAUUACGCAAC	–	-1.43 ± 0.47
GCGGAGCAAUAUUACGAUAU	-2.17 ± 0.14	-2.02 ± 0.18
GGGCAGCAAUAUUACGUUUC	-2.2 ± 0.094	-0.672 ± 0.098
GGCUAGCAAUAUUACGGAGA	-3.65 ± 0.37	–
UACUAGCAAUAUUACGGGCA	-0.178 ± 0.071	0.53 ± 0.11
CAAUAGCAAUAUUACGAGUG	-0.279 ± 0.079	-0.905 ± 0.11
CGAUAGCAAUAUUACGUAGC	-3.25 ± 0.19	-2.68 ± 0.34
GCGCAGCAAUAUUACGACGU	-1.69 ± 0.091	-1.13 ± 0.13
CGAAAGCAAUAUUACGGGGA	-3.09 ± 0.31	-1.85 ± 0.2
AAAAAGCAAUAUUACGGACU	-0.0499 ± 0.067	-0.0238 ± 0.083
GUCUAGCAAUAUUACGAUUC	-0.168 ± 0.094	0.284 ± 0.1
AUUGAGCAAUAUUACGCGCG	-3.04 ± 0.21	-2.22 ± 0.16
GGCAAGCAAUAUUACGCACU	-0.587 ± 0.06	-0.483 ± 0.075
GGCUAGCAAUAUUACGCGCA	0.157 ± 0.096	-0.145 ± 0.13
GUGUAGCAAUAUUACGGUAA	-2.48 ± 0.14	-1.49 ± 0.11
CAGAAGCAAUAUUACGCGUA	-2.63 ± 0.27	-1.69 ± 0.15
GCCUAGCAAUAUUACGCAGU	-1.77 ± 0.13	-0.206 ± 0.12
UGCAAGCAAUAUUACGUUCU	-0.995 ± 0.069	-0.423 ± 0.084
UCCAAGCAAUAUUACGACAU	-3.54 ± 0.021	-2.31 ± 0.036
GGUUAGCAAUAUUACGUGCU	-2.76 ± 0.46	-2.35 ± 0.3

Sequence	self-splicing fitness (ln) (30 °C)	self-splicing fitness (ln) (37 °C)
GGUUAGCAAUAUUACGGAUC	-1.53 ± 0.18	0.131 ± 0.28
UAUUAGCAAUAUUACGCAGC	-3.88 ± 0.24	-2.56 ± 0.31
CUACAGCAAUAUUACGAUCG	-0.0619 ± 0.061	0.736 ± 0.085
UGAGAGCAAUAUUACGAGCA	–	0.211 ± 0.27
UGUAAGCAAUAUUACGCACA	-1.44 ± 0.13	-0.574 ± 0.17
ACCAAGCAAUAUUACGUCGA	-2.16 ± 0.12	-1.83 ± 0.1
AAAGAGCAAUAUUACGUGCC	-3.09 ± 0.21	-2.35 ± 0.22
CAACAGCAAUAUUACGUUAG	-2.13 ± 0.076	-1.52 ± 0.089
CACAAGCAAUAUUACGGUGC	-3.25 ± 0.2	-2.72 ± 0.24
CGGCAGCAAUAUUACGCAGA	-3.27 ± 0.31	-2.48 ± 0.22
CGGGAGCAAUAUUACGUCUU	–	-0.499 ± 0.36
ACCAAGCAAUAUUACGGAUC	-3.49 ± 0.14	-1.28 ± 0.1
AUCUAGCAAUAUUACGAGGG	-2.92 ± 0.16	-2.18 ± 0.18
CUACAGCAAUAUUACGGUUC	-2.93 ± 0.089	-1.23 ± 0.1
CUUAAGCAAUAUUACGGGAG	-3.42 ± 0.27	-2.67 ± 0.27
UCAAAGCAAUAUUACGUCUG	-1.05 ± 0.076	-0.306 ± 0.087
CCAUAGCAAUAUUACGUUCU	-3.64 ± 0.25	-3.4 ± 0.32
UCCAAGCAAUAUUACGUACU	-3.94 ± 0.39	-2.54 ± 0.24
UGUAAGCAAUAUUACGUUAA	-2.04 ± 0.13	-0.926 ± 0.12
AGGGAGCAAUAUUACGCUGG	-4.26 ± 0.37	-1.67 ± 0.26
UCUCAGCAAUAUUACGCCUA	-2.3 ± 0.19	-1.22 ± 0.2
CUCGAGCAAUAUUACGACUC	-4.16 ± 0.22	-2.61 ± 0.24
GGGUAGCAAUAUUACGGGAG	-2.54 ± 0.28	-1.44 ± 0.25
ACUGAGCAAUAUUACGACCG	-1.3 ± 0.17	-0.981 ± 0.23
AUUGAGCAAUAUUACGAGAA	-2.35 ± 0.45	-2.62 ± 0.26
AGCUAGCAAUAUUACGAUAU	-0.87 ± 0.17	0.27 ± 0.11

Sequence	self-splicing fitness (ln) (30 °C)	self-splicing fitness (ln) (37 °C)
ACUCAGCAAUAUUACGUGUA	-1.39 ± 0.1	-0.266 ± 0.096
GUCUAGCAAUAUUACGAUCC	-0.754 ± 0.16	0.0678 ± 0.24
GAGAAGCAAUAUUACGUUCC	-3.57 ± 0.32	-1.65 ± 0.29
UCUCAGCAAUAUUACGAAGU	-2.33 ± 0.26	-0.109 ± 0.16
GCAAAGCAAUAUUACGUUGG	-1.94 ± 0.069	-1.32 ± 0.09
GCGUAGCAAUAUUACGGAUC	-0.345 ± 0.079	0.215 ± 0.088
GACUAGCAAUAUUACGUUCG	-3.18 ± 0.22	-0.787 ± 0.13
CUUCAGCAAUAUUACGGAGC	-3.04 ± 0.29	-2.65 ± 0.25
ACCAAGCAAUAUUACGGGAA	-2.85 ± 0.13	-2.19 ± 0.1
GGCAAGCAAUAUUACGUCUC	-0.496 ± 0.087	0.539 ± 0.12
CGCUAGCAAUAUUACGGGGG	-2.53 ± 0.14	-2.43 ± 0.16
UUCAAGCAAUAUUACGCUCA	-1.42 ± 0.16	0.0916 ± 0.2
UGUGAGCAAUAUUACGUCUG	-0.95 ± 0.15	-0.000357 ± 0.17
GCGAAGCAAUAUUACGCUUG	-1.45 ± 0.26	-1.56 ± 0.35
CAGUAGCAAUAUUACGAGCU	-3.07 ± 0.28	0.322 ± 0.19
GUCUAGCAAUAUUACGCCGU	-0.884 ± 0.23	-0.0862 ± 0.26
UUCAAGCAAUAUUACGGCGC	-1.42 ± 0.14	-1.47 ± 0.2
UGUUAGCAAUAUUACGAUAU	-2.45 ± 0.21	-0.289 ± 0.25
UUUGAGCAAUAUUACGAACG	–	-0.865 ± 0.26
CAAGAGCAAUAUUACGUGGC	-3.77 ± 0.2	-3.41 ± 0.28
AACGAGCAAUAUUACGGUUA	-1.84 ± 0.18	-0.413 ± 0.15
CCGCAGCAAUAUUACGACGU	-3.96 ± 0.21	-2.38 ± 0.22
GCUAAGCAAUAUUACGGAUA	-2.45 ± 0.24	-0.375 ± 0.18
UUCAAGCAAUAUUACGUACU	-1.3 ± 0.13	-0.455 ± 0.15
GAGGAGCAAUAUUACGGCCC	-0.89 ± 0.29	-0.616 ± 0.49
